Laboratory results from the DeepSol protein solubility set.

Assay: soluble on expression in E. coli; label from the status in PepcDB or PDB records

Row | Sequence | soluble on expression in E. coli
1 | MSLKHSKIRIAHISDIHIGSRLDKLPQKMVNKIIEENPDLVVITGDLIDSHNVISTDLASFNAFKERNIPIYYTIGNHDIMAGEEYVSSILEYYGIIYLKNQVTQITIGDETIQLVGIDDVQSITKYNEIFNSITPSIHNNIYTILLHHRPQGYKTSVQSGQIDLQLAGHTHDGQVFPFNYIVPLFHSKSYGMYHIKDEGHHHHHH | not soluble
2 | DMKPNSTKIGVAEATDAALIQALQQRQVFTKTTQPTLSWEQYLELNLNSKSKRLALCNKLHLSYFNHKQLFRKLNLLQLTFDQVCQLLK | not soluble
3 | MTTSDSRSFMYRLLKFISRQPIQLSRLFARMLAGLVNTLKLTKTSRTIQLNLKITLPYLNDQQRERIIQNAIRNELTSYMEFFSIWGSSNQKNISRIHHVEGADFFHQAIAENKGIVLIVPHFGTWEIMNAWCAQYTDMTILYKPVKDKDADRFVREARSREQAKLVPTDESGVRQIFKALKQGGTTVILPDHTPNVGGEMVDYFGIPLASSNLSAKLIQKTKAKALFLYAIRNENHGFDMFIEPMDPAIYQGTDHDGTLVIHHAIEDLIRKYPDHYHWSYKRFKA | not soluble
4 | MNNNNKAKTLITQLEQEINWVEELNTLLSEEKEILSTSQFNQLETLAEKKQELSTKLEASAKQRVDLIKESNPGDKPHGLLLSDFLKNCATEDGIQINHLNNTLAERLNLCRELNTINGQVIANNMYTRQQIVNALSGNKSDAVSVYTSNGNLETPSESSHHEEA | soluble
5 | QTPPRLVAIGGLSGSGKTTIAEALAAHVGAPPGARIVESDRIRKAMHGVPAETRLPDNAYRPDVSDRVYNEMTWRAGLILSEGGSVVADAVFDRPADRERIEKAARDRGIPFFGFWLEADPLVLWQRVSERKGGPSDATVDILSRQLQRKAG | not soluble
6 | MGSDKIHHHHHHMDFALEQYHSAKDLLIFELRKFNPIVLVSSTIVATYVLTNLRHMHLDEMGIRKRLSTWFFTTVKRVPFIRKMIDKQLNEVKDELEKSLRIVDRSTEYFTTIPSHSVGRTEVLRLAAIYDDLEGPAFLEGRVSGAVFNREDDKDEREMYEEVFGKFAWTNPLWPKLFPGVRIMEAEVVRMCCNMMNGDSETCGTMSTGGSISILLACLAHRNRLLKRGEKYTEMIVPSSVHAAFFKAAECFRIKVRKIPVDPVTFKVDLVKMKAAINKRTCMLVGSAPNFPFGTVDDIEAIGQLGLEYDIPVHVDACLGGFLLPFLEEDEIRYDFRVPGVSSISADSHKYGLAPKGSSVVLYRNKELLHNQYFCDADWQGGIYASATMEGSRAGHNIALCWAAMLYHAQEGYKANARKIVDTTRKIRNGLSNIKGIKLQGPSDVCIVSWTTNDGVELYRFHNFMKEKHWQLNGLQFPAGVHIMVTMNHTHPGLAEAFVADCRAAVEFVKSHKPSESDKTSEAAIYGLAQSIPDRSLVHEFAHSYIDAVYALTE | not soluble
7 | DYKDIVLTQSHKFMSTSVGDRVSITCKASQDVGTAVAWYQQKPGQSPKLLIYWASTRHTGVPDRFTGSGSGTDFTLTISNVQSEDLADYFCQQYSSYPLTFGAGTKLELKRGGGGSGGGGSGGGGSGGGGSQVQLQESGGELVRPGASVKLSCKASGYTFTSYWINWVKQRPGQGLEWIGNIYPSDSYTNYNQKFKDKATLTVDKSSSTAYMQLSSLTSEDSAVYFCARWGYWGQGTLVTVSAASGAHHHHH | soluble
8 | MGFEDLVEVTTMIADLTTDQREALLLTQLLGLSYADAAAVCGCPVGTIRSRVARARDALLADAEPDDLTG | soluble
9 | MVEEFKVTPWEVEGVVDYDKLIKHFGTSPLTEDLLEKTAELTKSELPIFFRRKFFFSHRDYDLILKDYEEGRGFFLYTGRGPSGPMHIGHIIPFFATKWLQEKFGVNLYIQITDDEKFLFKENLTFDDTKRWAYDNILDIIAVGFDPDKTFIFQNSEFTKIYEMAIPIAKKINFSMAKAVFGFTEQSKIGMIFFPAIQIAPTFFERKRCLIPAAIDQDPYWRLQRDFAESLGYYKTAALHSKFVPSLTSLSGKMSASKPETAIYLTDSPEDVEKKVWKFTLTGGRPTLKEQREKGGEPEKCVVFKWLEIFFEEDDKKLKERYYACKNGELTCGECKRYLISKIQEFLKEHQRRRKKAEKLVEKFKYTGKLAQEMWNEAIPEPLKRSHHHHHH | soluble
10 | MDLFKRKVKEWVYSLSTDDHYAEYNPDETPTFNMGKRLNSNNGQVNPSQMHLNSVDEEMSMGFQNGVPSNEDINIDEFTSTESNDGVSETLLAWRHIDFWTSEHNPDLNATLSDPCTQNDITHAEEDLEVSFPNPVKASFKIHDGQEDLESMTGTSGLFYGFQLMTLDQVVAMTQAWRNVAKNLNKRSQQGLSHVTSTGSSSSMERLNGNKFKLPNIPDQKSIPPNAVQPVYAHPAWIPLITDNAGNHIGVDLAPGPNGKYAQIITFGRDFDTKFVIAENWGEFLLSFANDLEAGNWYLVDDNDDYFSGDGELVFRDKKSNGPIQDYFEVLKRRTWIKYQENLRSQQQKSQPDTSLQEQKYVPASQKKVAAEQPSTLNAESIKGEDSGSADVQSVQDHESVKIVKTEPSEAETTTVNTESLGQAEHEIKADNVDIKQESERKEDEKQPKVEEKEHVENEHVTESAKKDDDVNKQTEEMNKKEENEIRSDDAKVEEAREEFENIAL | soluble
11 | MSQVTADALTAQVVAEYLYEHPDFFQHHPHLVERLALPTQTGAVSLAHVQLARQRQRIDSLEEEITALMSLAANNDRTFHEFMDLQEQILKCSSLQAVLHAIEAKARELNLRAYVRLLQRHDEKYGLASEDWQRFATNHFNGKSAYLGRLRQADRQRLLGDRPAPEMGSYVVLPLQRQAPLGILAFASEDGGHFQPSMDTLFLRHLALVLAHLIETLPWQSHDEERRTHPAS | not soluble
12 | MRHYKTLRYYETVFAVKPTLSEEEMKKKFEQVKEFIKQKGGEILYEEDWGMRQLAYPIQKFNNARYFLVQFKTENPQLPNELDFQLKIDEDVIRWLNIQIKESEVKKNAQ | soluble
13 | MGSDKIHHHHHHMSKGRHVCFLTGTLNAMAGAERMTAVIANALAESGHTVSILSLWDKDSCFPLHPAVGHEALFAERPSFKKAYLTTVAGIRRYCRERKVDVLVQVDTMLALLALPATVGLGVQHIAWEHCHFDEDLGRRARRYARRLAARYCKHVVVLTERDQLRWIEALQPRSQVVIIPNPLPFPFPEEPAPRTGKIVLAMGRLVNAKGFDVLIRAWQRVSAEVPDWKLVIHGEGEERPALSALIDELGLQDSVSLPGICRDATEAYREASIFCLSSRYEGFGLVLIEAMAFGLPIVSTNCEAGPRELLATGTVGLTVPVDAPTMLAASILDLIHQPDLALRFAHAERMFAKGYSLQQIGARWSDLTSARHGSMPQYS | not soluble
14 | MSQVTRVYAGRLAGMIVRGPDTDAIGRVRDVIVNVRPNGQPSRVLGLVVEMMNNRKIFLPMLRVAAIEPQEITLVSGSVSLRAYKPRNGEVAIIADIVGSKVHIDDPELDHLHGRPVEVADIELERTRTRDWAISRVAVIGERPKFGRRPELFTCPWSHVHGISAGGVGITDAAAELIAEFEDMRPADIATVLYELPDAQRANVAKELDDDRLADVLQEMSEDRQAELIETLDIERAADVLEEMDPDDAADLLGELDDDKADVLLELMDPEESAPVRRLMSFSPDTVGALMTPEPLILSPQTTVAEALALARNPDLPTSLASIVFVVRPPTATPTGKYLGCVHLQKLLREPPSELVSGILDPDLPPLWASDSQETAARYFATYNLVCGPVVDNDNHLLGAVAVDDLLDHMLPDDWRDTGIRPDETPKEV | not soluble
15 | MVARISVGKNLYGALAYNQNKVDEGGAKVLSAHLLRYPEDGRFRPDESVRQFLEWMPNHYRTEKPVIHISLNPHPDDVLTDGQLAEIGREYMQRLGYGNQPYLVFKHEDIGRHHIHIVSLRVDSEGRKVSDKFEYRRSKEITELLEQKYGLHPAEGRKKGEEWQLKPVDVAKGDIKRQIACTLKPLLELYSFRTMGELRALLSLYNIGVEEVKGEIGGRTYHGILYTALDGNGETAATPIKSSRLGRTAGAQQLDRKMRESAARIKSAPCRERLRPLVADALRQSVDERDFRDRLAKEQIDLVLRRNGTDRIYGVTFIDHRSRTVLNGSRLGKEFSANMLNGHFQEQPPNSLSPLLPPVPSAVASGNGEKIPGGLLSDMEPELNYVPRYPKLLKPDKKKRRRRYGRQD | not soluble
16 | MSLTSWNATIDPDNTIRFKEPDVLFDSGKSQVKERFKVVLDDFFPRYVKILSQEKYKGDIEEIRIEGHTSSEWLNAKTLEERYLGNAALSQARAFEVLKYCFALERIKGEQDWLIKVLRANGLSFAKPLDSEEHSRRVEFRTLTRSHQKMLKILDLSKEGHHHHHH | not soluble
